Measurements: patent publication US6673354B2, “Compositions and methods for treating papillomavirus-infected cells” (priority 1998, dated 2004)

What was measured:
[1] = biological target: T1, EE-EIC (epitope tagged carboxy terminal domain of HPV16 E1) (human papillomavirus type 16, UniProt P03114 424-649); assay: in vitro E1-E2 competition binding assay with EE-EIC, 10-40 µM peptide, FIG. 14
T1 construct: range 424-649; limits uncertain; also called HPV-16 EE-EIC; EE-E1C
T1 sequence: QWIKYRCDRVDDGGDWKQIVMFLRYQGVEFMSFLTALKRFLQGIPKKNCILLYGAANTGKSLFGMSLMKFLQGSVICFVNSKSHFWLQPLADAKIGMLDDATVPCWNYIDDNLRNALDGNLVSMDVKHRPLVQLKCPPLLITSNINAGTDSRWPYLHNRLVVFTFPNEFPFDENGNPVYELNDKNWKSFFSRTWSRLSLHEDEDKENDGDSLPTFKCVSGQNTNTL

[2] = biological target: T2, epitope tagged full length HPV16 E1 (EE16-E1) (human papillomavirus type 16, UniProt P03114 1-649); assay: inhibition of HPV16 E1-E2 co-immunoprecipitation by peptide; competitor HPV16 E2
T2 construct: range 1-649; also called EE-E1; HPV16 EE-E1
T2 sequence: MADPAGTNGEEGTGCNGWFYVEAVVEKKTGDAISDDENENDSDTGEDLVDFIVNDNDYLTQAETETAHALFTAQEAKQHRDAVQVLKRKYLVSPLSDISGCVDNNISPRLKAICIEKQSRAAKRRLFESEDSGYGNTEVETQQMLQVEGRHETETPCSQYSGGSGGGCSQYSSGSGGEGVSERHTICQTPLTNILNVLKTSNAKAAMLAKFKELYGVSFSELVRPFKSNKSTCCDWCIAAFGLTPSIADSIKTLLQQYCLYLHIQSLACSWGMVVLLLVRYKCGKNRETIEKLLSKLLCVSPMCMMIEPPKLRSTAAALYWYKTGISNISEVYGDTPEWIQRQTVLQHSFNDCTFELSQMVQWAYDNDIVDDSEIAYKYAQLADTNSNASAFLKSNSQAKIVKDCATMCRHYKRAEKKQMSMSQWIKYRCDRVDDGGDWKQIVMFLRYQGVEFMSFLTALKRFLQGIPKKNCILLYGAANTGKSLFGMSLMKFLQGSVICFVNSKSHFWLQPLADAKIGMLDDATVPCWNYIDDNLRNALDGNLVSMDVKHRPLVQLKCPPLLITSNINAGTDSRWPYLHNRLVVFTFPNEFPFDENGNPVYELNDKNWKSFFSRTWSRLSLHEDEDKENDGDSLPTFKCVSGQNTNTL

[3] = biological target: T3, HPV11 EE-E1 (epitope tagged HPV11 E1) (human papillomavirus type 11, UniProt P04014 1-649); assay: co-immunoprecipitation with anti-EE antibody, Western blot for E2
T3 sequence: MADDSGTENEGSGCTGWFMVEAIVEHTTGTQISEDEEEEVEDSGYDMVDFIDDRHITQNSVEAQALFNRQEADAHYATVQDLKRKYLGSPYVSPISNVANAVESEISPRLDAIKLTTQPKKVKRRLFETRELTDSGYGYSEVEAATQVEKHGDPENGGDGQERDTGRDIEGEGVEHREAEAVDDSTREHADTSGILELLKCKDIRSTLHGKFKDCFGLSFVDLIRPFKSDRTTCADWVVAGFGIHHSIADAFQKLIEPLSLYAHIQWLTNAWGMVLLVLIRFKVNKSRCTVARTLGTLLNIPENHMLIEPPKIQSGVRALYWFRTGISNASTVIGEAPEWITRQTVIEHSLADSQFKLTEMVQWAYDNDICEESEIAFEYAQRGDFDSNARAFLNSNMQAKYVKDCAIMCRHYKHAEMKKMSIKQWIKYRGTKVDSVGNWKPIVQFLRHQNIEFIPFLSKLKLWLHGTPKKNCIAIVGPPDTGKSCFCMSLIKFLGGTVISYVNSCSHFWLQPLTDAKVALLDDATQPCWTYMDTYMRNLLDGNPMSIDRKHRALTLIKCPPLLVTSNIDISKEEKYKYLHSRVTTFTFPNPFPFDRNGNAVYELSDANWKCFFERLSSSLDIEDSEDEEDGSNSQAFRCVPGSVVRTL

| Binder | IC50 [2] [µM] | other results |
| --- | --- | --- |
| ERQIKIWFQNRRMKWKKGGWKHMRLECAIYYKAR (also called Antennapedia fusion peptide) [Ant-WP (Drosophila Antennapedia aa 42-58, Gly-Gly spacer, WP15)] |  | binding result [1]: binds |
| HIDYWKHMRLECAIYYKAREMGF (also called 23-mer) [E2N-WP23 (peptide of HPV16 E2 amino acids 29-51)] | 5 |  |
| WKHMRLECAIYYKAR (also called 15-mer; wild-type peptide) [E2N-WP15 (peptide of HPV16 E2 residues 33-47)] | 7.5 |  |
| HPV16 E2 E39A mutant (other, also called E39A replication defective HPV16 E2 mutant) METLCQRLNVCQDKILTHYENDSTDLRDHIDYWKHMRLACAIYYKAREMGFKHINHQVVPTLAVSKNKALQAIELQLTLETIYNSQYSNEKWTLQDVSLEVYLTAPTGCIKKHGYTVEVQFDGDICNTMHYTNWTHIYICEEASVTVVEGQVDYYGLYYVHEGIRTYFVQFKDDAEKYSKNKVWEVHAGGQVILCPTSVFSSNEVSSPEIIRQHLANHPAATHTKAVALGTEETQTTIQRPRSEPDTGNPCHTTKLLHRDSVDSAPILTAFNSSHKGRINCNSNTTPIVHLKGDANTLKCLRYRFKKHCTLYTAVSSTWHWTGHNVKHKSAIVTLTYDSEWQRDQFLSQVKIPKTITVSTGFMSI |  | binding result [3]: no binding |
